Test results reported in US20240400652A1.
Read-outs that look alike come from different tables or passages of the source.

Legend:
[1] = target: SARS-CoV-2 Spike protein on pseudotyped virus (SARS-CoV-2) (UniProt P0DTC2); test: cell-based or functional assay
[2] = target: SARS-CoV-2 Spike protein on pseudotyped virus (SARS-CoV-2) (UniProt P0DTC2); test: cell-based or functional assay; remark: listed apart in the source
[3] = target: Deglycosylated SARS-CoV-2 RBD (SARS-CoV-2) (UniProt P0DTC2)

S309 LS (antibody)
IC50, neutralization of SARS-CoV-2pp, DBT-ACE2 cells [1]: 3.9 nM
maximum neutralization, VSV pseudotype, 293T ACE2 cells [1]: 34%
maximum neutralization, VSV pseudotype, A549-ACE2-TMPRSS2 clone 5 cells [1]: 65%
maximum neutralization, VSV pseudotype, A549-ACE2-TMPRSS2 clone 10 cells [1]: 42%
maximum neutralization, VSV pseudotype, Huh7 cells [1]: 78%
maximum neutralization, VSV pseudotype, MRC5-ACE2-TMPRSS2 cells [1]: 45%
maximum neutralization, VSV pseudotype, Vero E6-TMPRSS2 cells [1]: 96%
maximum neutralization, VSV pseudotype, Vero E6 cells [1]: > 99%
IC50, neutralization of SARS-CoV-2pp, DBT-ACE2 cells [2]: 3.82 nM

sotrovimab (antibody)
EC50, neutralization of pseudotyped virus [1]: 0.0241 µg/mL

S306 G56A (as printed in Table 5) (antibody)
Kd [3]: 0.7 nM
koff [3]: 0.00024 s⁻¹
kon [3]: 340000 M⁻¹ s⁻¹
